{"source": "paper PMC7885793", "about": "(Biochemistry, 2019)", "binders": {"B1": {"name": "Activated Gαq (Gαq·GDP-ALF4^−) (natural protein, murine, UniProt P21279 7-359, looked up)", "chain": "MACCLSEEAKEARRINDEIERQLRRDKRDARRELKLLLLGTGESGKSTFIKQMRIIHGSGYSDEDKRGFTKLVYQNIFTAMQAMIRAMDTLKIPYKYEHNKAHAQLVREVDVEKVSAFENPYVDAIKSLWNDPGIQECYDRRREYQLSDSTKYYLNDLDRVADPSYLPTQQDVLRVRVPTTGIIEYPFDLQSVIFRMVDVGGQRSERRKWIHCFENVTSIMFLVALSEYDQVLVESDNENRMEESKALFRTIITYPWFQNSSVILFLNKKDLLEEKIMYSHLVDYFPEYDGPQRDAQAAREFILKMFVDLNPDSDKIIYSHFTCATDTENIRFVFAAVKDTILQLNLKEYNLV"}}, "assay_in_all_cases": "cell-based or functional assay", "key": {"[1]": {"target": "T1, PLCβ3-Δ892 (residues 10–892) (Homo sapiens, UniProt Q01970 10-892)", "T1 sequence (looked up)": "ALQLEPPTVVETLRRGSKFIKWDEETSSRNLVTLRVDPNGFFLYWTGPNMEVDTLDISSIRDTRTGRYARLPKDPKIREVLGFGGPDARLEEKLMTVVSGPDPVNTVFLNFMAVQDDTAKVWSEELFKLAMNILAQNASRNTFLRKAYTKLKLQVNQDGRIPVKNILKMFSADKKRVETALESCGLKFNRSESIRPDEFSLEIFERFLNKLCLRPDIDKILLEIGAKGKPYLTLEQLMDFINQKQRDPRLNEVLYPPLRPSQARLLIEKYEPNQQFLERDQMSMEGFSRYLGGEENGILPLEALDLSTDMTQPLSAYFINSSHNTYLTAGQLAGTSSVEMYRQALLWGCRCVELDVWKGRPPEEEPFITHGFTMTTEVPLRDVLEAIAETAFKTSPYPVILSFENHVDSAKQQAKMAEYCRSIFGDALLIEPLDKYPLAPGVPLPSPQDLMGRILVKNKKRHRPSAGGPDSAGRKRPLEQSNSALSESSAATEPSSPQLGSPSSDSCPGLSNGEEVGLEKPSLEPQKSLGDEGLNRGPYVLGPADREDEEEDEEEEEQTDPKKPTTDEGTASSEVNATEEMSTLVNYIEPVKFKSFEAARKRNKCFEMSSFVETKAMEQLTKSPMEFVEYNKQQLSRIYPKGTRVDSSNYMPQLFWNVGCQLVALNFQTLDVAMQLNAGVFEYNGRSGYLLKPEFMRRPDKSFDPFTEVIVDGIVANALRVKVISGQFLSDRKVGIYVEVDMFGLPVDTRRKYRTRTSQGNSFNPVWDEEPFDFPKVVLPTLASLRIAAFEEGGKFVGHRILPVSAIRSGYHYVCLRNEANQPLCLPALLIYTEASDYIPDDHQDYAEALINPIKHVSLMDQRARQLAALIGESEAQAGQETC"}, "[2]": {"target": "T2, Homo sapiens PLCβ3 (residues 10–1234) (Homo sapiens, UniProt Q01970 10-1234)", "T2 sequence (looked up)": "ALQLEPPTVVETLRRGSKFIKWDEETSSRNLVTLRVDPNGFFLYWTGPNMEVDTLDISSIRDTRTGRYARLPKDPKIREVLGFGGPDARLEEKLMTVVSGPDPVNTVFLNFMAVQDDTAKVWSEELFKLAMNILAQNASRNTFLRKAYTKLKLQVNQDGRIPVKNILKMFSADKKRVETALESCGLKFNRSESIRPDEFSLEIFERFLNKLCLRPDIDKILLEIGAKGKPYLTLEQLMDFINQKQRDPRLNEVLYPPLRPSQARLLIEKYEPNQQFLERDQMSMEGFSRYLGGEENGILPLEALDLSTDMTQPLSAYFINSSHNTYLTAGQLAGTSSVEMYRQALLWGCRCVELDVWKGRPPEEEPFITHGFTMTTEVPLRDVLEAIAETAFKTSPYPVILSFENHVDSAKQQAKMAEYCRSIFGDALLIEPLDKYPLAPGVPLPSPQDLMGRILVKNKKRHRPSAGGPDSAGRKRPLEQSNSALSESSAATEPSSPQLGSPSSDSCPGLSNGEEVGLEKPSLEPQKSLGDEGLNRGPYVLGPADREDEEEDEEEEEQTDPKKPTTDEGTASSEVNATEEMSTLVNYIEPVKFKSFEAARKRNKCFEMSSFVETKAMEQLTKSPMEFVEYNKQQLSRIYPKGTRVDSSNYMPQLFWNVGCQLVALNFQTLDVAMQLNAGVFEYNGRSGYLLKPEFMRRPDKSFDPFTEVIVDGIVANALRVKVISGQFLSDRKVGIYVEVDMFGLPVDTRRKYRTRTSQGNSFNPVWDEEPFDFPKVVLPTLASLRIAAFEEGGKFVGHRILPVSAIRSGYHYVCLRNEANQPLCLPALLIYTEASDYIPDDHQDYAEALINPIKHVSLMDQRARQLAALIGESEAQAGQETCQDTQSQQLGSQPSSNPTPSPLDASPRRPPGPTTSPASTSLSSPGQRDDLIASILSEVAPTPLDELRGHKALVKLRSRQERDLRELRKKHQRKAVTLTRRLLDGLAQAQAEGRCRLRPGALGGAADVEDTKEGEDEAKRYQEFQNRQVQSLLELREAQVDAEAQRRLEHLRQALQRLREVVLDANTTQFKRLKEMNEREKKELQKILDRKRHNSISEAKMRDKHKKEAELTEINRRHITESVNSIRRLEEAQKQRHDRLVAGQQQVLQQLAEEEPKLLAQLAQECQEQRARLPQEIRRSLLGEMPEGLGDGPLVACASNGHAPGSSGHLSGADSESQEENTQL"}, "PLCβ3-Δ892 ΔXY1": {"target": "T3, PLCβ3-Δ892 ΔXY1 (Homo sapiens, UniProt Q01970 10-892, ΔXY1 (residues 471–569))", "T3 sequence (looked up)": "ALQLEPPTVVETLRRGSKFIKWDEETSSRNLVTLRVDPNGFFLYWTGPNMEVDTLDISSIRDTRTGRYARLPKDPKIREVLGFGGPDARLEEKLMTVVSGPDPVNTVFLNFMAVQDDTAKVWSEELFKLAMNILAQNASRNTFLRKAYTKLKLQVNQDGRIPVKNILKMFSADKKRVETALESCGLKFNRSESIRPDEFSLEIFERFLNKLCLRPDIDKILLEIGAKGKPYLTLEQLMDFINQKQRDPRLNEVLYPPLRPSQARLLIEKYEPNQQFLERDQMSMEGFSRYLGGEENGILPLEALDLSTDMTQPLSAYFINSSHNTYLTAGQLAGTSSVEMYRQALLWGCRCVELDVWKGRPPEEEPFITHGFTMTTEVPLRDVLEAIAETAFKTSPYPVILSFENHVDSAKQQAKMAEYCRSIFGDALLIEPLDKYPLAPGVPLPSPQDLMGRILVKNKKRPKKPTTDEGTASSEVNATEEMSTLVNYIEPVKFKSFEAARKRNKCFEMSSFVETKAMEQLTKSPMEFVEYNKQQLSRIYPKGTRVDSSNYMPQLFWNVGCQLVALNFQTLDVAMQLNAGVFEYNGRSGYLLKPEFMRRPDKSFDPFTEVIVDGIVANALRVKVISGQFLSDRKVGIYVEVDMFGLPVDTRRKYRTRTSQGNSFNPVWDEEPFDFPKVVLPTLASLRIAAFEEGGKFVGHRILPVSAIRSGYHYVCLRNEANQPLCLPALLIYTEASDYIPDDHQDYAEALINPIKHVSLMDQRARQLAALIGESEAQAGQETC"}}}
{"binder": "B1", "values": [{"measurement": "x-fold maximum activity over basal (complex against the PLCβ3 variant alone)", "setting": "[1]", "value": 22, "unit": "x-fold"}, {"measurement": "x-fold maximum activity over basal (complex against the PLCβ3 variant alone)", "setting": "[2]", "value": 8, "unit": "x-fold"}, {"measurement": "x-fold maximum activity over basal (complex against the PLCβ3 variant alone)", "setting": "PLCβ3-Δ892 ΔXY1", "value": 2, "unit": "x-fold"}]}
